Results published in patent US20030165489A1.

What was measured:
SP (substance P) [1] = target: SP (substance P) (UniProt P20366); test: cell-based or functional assay
SP (substance P) [2] = target: T1, SP (substance P) (UniProt P20366)
T1 sequence: RPKPQQFFGLM

| Substance | diminution of SP-evoked vasodilatory response (100 pg SP, pig in vivo, after 50 µg DPPIV) (SP (substance P) [1]) [%] | diminution of SP-evoked vasodilatory response (1 ng SP, pig in vivo, after 50 µg DPPIV) (SP (substance P) [1]) [%] | degradation of SP identified by mass-spectrometry (SP (substance P) [2]) |
| --- | --- | --- | --- |
| Recombinant dipeptidyl peptidase IV (DPPIV), soluble form secreted from Aspergilus Fumigatus (enzyme) | 66 | 71 | – |
| Recombinant dipeptidyl peptidase IV (DPPIV), soluble form secreted from Aspergilus Fumigatus | – | – | SP (1.8 µg) co-incubated with 0.016 µg of DPPIV for ten minutes at 37 °C is degraded to SP5-11 |
